Measurements: publication doi:10.1101/577460 (bioRxiv, 2019)
Changes are numbered by the printed parent chain. Names and notes keep the numbering of the source. Each block holds one binder with its values, some of them ahead of it.

Assays:
[1] = biological target: T1, barrier-to-autointegration factor (BAF) (human, UniProt O75531 1-89); assay: SEC
T1 sequence (looked up): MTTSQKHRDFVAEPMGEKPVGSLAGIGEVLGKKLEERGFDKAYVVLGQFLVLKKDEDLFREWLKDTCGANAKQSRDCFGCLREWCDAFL

full-length human CHMP7 = biological target: T2, full-length human CHMP7 (human, UniProt Q8WUX9 1-453); assay: cross-linking
T2 sequence (looked up): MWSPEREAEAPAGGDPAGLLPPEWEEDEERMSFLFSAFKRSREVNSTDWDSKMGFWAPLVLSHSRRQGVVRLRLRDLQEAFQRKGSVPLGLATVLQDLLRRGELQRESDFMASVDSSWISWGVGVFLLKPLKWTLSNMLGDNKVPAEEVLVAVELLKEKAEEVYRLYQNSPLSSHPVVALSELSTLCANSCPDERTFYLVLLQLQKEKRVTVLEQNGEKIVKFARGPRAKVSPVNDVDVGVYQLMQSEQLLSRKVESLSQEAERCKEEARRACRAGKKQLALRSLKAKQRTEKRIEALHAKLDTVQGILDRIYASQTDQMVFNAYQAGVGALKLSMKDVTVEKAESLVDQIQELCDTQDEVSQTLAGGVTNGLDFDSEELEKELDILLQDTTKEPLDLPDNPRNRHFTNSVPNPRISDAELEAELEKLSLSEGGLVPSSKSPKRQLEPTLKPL

co-sedimentation = biological target: the molecule itself; assay: co-sedimentation
negative stain EM = biological target: the molecule itself; assay: negative stain EM

binding result [1]: binds
B1: LEM2_(1-72) (domain or fragment, human, UniProt Q8NC56 1-72, looked up)
chain: MAGLSDLELRRELQALGFQPGPITDTTRDVYRNKLRRLRGEARLRDEERLREEARPRGEERLREEARLREDA

binding result (full-length human CHMP7): binds
B2: His6-SUMO-LEM2_(395-503) (domain or fragment, human, UniProt Q8NC56 395-503, looked up)
chain: ILLKYRWRKLEEEEQAMYEMVKKIIDVVQDHYVDWEQDMERYPYVGILHVRDSLIPPQSRRRMKRVWDRAVEFLASNESRIQTESHRVAGEDMLVWRWTKPSSFSDSER

B3: CHMP7_(R270E + I312E) (natural protein, human, UniProt Q8WUX9 1-453, looked up)
chain: T2 sequence (looked up) with R270E, I312E
binding result (co-sedimentation): binds

B4: CHMP7_(R270E + V339D) (natural protein, human, UniProt Q8WUX9 1-453, looked up)
chain: T2 sequence (looked up) with R270E, V339D
binding result (co-sedimentation): binds

B5: CHMP7_(229-453) (domain or fragment, human, UniProt Q8WUX9 229-453, looked up)
chain: AKVSPVNDVDVGVYQLMQSEQLLSRKVESLSQEAERCKEEARRACRAGKKQLALRSLKAKQRTEKRIEALHAKLDTVQGILDRIYASQTDQMVFNAYQAGVGALKLSMKDVTVEKAESLVDQIQELCDTQDEVSQTLAGGVTNGLDFDSEELEKELDILLQDTTKEPLDLPDNPRNRHFTNSVPNPRISDAELEAELEKLSLSEGGLVPSSKSPKRQLEPTLKPL
binding result (negative stain EM): binds
